Our source for the EC50 values is patent WO1989007452A1.

This assay concerns the target Campath-1 antigen (partially purified, obtained from a glycolipid extract from human spleen) (human) (UniProt P31358). The assay is described as follows: direct binding ELISA on partially purified Campath-1 antigen coated on microtitre wells; detected with biotin-labelled anti-rat IgG2b; antibody concentration at 50% binding. Background: An ELISA detects its analyte on a solid surface through an enzyme-linked reagent.

By EC50 is commonly meant the midpoint of the concentration-response curve. A high value points to a less potent agent. Take “RaVHCAMP-RaIgG2B (cloned rat heavy chain variable domain of YTH 34.5HL on rat IgG2b constant domains, with rat kappa light chain) (from UniProt P20761 1-333) (antibody)”: the EC50 came out at 1.01 µg/mL.
